Reference: patent publication US20160130315A1 (AJOU UNIVERSITY INDUSTRY ACADEMIC COOPERATION FOUNDATION, published 2016)

Biological target: T1, Fc (human, UniProt P01857-1 104-330 = IgG part, limits assumed)
T1 construct: domain: Fc (hinge-CH2-CH3); Control without TPP; also called control group Fc; antibody heavy-chain constant region
Assay: FACS on cells carrying neuropilin-1 and -2

binding result: no binding (tested: 1 µM)
B1: neuropilin-2 expressed on cell surface (receptor, human, UniProt O60462 21-931, looked up)
chain: RGQPDPPCGGRLNSKDAGYITSPGYPQDYPSHQNCEWIVYAPEPNQKIVLNFNPHFEIEKHDCKYDFIEIRDGDSESADLLGKHCGNIAPPTIISSGSMLYIKFTSDYARQGAGFSLRYEIFKTGSEDCSKNFTSPNGTIESPGFPEKYPHNLDCTFTILAKPKMEIILQFLIFDLEHDPLQVGEGDCKYDWLDIWDGIPHVGPLIGKYCGTKTPSELRSSTGILSLTFHTDMAVAKDGFSARYYLVHQEPLENFQCNVPLGMESGRIANEQISASSTYSDGRWTPQQSRLHGDDNGWTPNLDSNKEYLQVDLRFLTMLTAIATQGAISRETQNGYYVKSYKLEVSTNGEDWMVYRHGKNHKVFQANNDATEVVLNKLHAPLLTRFVRIRPQTWHSGIALRLELFGCRVTDAPCSNMLGMLSGLIADSQISASSTQEYLWSPSAARLVSSRSGWFPRIPQAQPGEEWLQVDLGTPKTVKGVIIQGARGGDSITAVEARAFVRKFKVSYSLNGKDWEYIQDPRTQQPKLFEGNMHYDTPDIRRFDPIPAQYVRVYPERWSPAGIGMRLEVLGCDWTDSKPTVETLGPTVKSEETTTPYPTEEEATECGENCSFEDDKDLQLPSGFNCNFDFLEEPCGWMYDHAKWLRTTWASSSSPNDRTFPDDRNFLRLQSDSQREGQYARLISPPVHLPRSPVCMEFQYQATGGRGVALQVVREASQESKLLWVIREDQGGEWKHGRIILPSYDMEYQIVFEGVIGKGRSGEIAIDDIRISTDVPLENCMEPISAFAGENFKVDIPEIHEREGYEDEIDDEYEVDWSNSSSATSGSGAPSTDKEKSWLYTLDPILITIIAMSSLGVLLGATCAGLLLYCTCSYSGLSSRSCTTLENYNFELYDGLKHKVKMNHQKCCSEA
notes: whole, on cells; Endogenous expression; the same cells also carry neuropilin-1; also called NRP2
